Results published in the supplement of paper PMC7877785.
± gives the uncertainty stated by the source.

Test: self-splicing fitness, log relative to wild type (ln ratio); higher = more splicing; Tetrahymena group I intron in knt gene, E. coli kanamycin selection, DiMSum; sequences stand for … in CUCUCU…GGAGGGAAAAGUUAUCAGGCAUGCACCUGGUAGCUAGUCUUUAAACCAAUAGAUUGCAUCGGUUUAAAAGGCAAGACCGUCAAAUUGCGGGAAAGGGGUCAACAGCCGUUCAGUACCAAGUCUCAGGGGAAACUUUGAGAUGGCCUUGCAAAGGGUAUGGUAAUAAGCUGACGGACAUGGUCCUAACCACGCAGCCAAGUCCUAAGUCAACAGAUCUUCUGUUGAUAUGGAUGCAGUUCACAGACUAAAUGUCGGUCGGGGAAGAUGUAUUCUUCUCAUAAGAUAUAGUCGGACCUCUCCUUAAUGGGAGCUAGCGGAUGAAGUGAUGCAACACUGGAGCCGCUGGGAACUAAUUUGUAUGCGAAAGUAUAUUGAUUAGUUUUGGAGUACUCGUGGUCG
Outline: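 Pooled colonies went to amplicon sequencing on an Illumina HiSeq 2500 after six replicate transformations. The plates were LB agar with 100 μg/mL carbenicillin, 50 μM IPTG and 0.2% rhamnose, with or without 25 μg/mL kanamycin, incubated overnight at 37°C or 30°C. The E. coli BL21(DE3) library had all eight P1ex-region intron nucleotides randomised, the intron placed in the knt kanamycin-resistance gene on pET-22b(+). DiMSum fitness is the error-weighted combination of replicate fold changes, kanamycin against none, normalised to wild type.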

CUCGAGCAAUAUUACGAUUU
self-splicing fitness (ln) (30 °C): -3.73 ± 0.2
self-splicing fitness (ln) (37 °C): -2.91 ± 0.21

CUCGAGCAAUAUUACGCACA
self-splicing fitness (ln) (30 °C): -4.64 ± 0.3
self-splicing fitness (ln) (37 °C): -1.94 ± 0.19

CUCGAGCAAUAUUACGCAUC
self-splicing fitness (ln) (30 °C): -3.3 ± 0.22
self-splicing fitness (ln) (37 °C): -2.49 ± 0.3

CUCGAGCAAUAUUACGCAUU
self-splicing fitness (ln) (30 °C): -3.59 ± 0.3

CUCGAGCAAUAUUACGCUAG
self-splicing fitness (ln) (30 °C): -4.42 ± 0.39
self-splicing fitness (ln) (37 °C): -2.52 ± 0.32

CUCGAGCAAUAUUACGGAAG
self-splicing fitness (ln) (30 °C): -3.56 ± 0.2
self-splicing fitness (ln) (37 °C): -1.32 ± 0.13

CUCGAGCAAUAUUACGGAAU
self-splicing fitness (ln) (30 °C): -3.24 ± 0.2
self-splicing fitness (ln) (37 °C): -3.23 ± 0.38

CUCGAGCAAUAUUACGGACC
self-splicing fitness (ln) (30 °C): -3.81 ± 0.37
self-splicing fitness (ln) (37 °C): -2.52 ± 0.41

CUCGAGCAAUAUUACGGCAA
self-splicing fitness (ln) (30 °C): -1.82 ± 0.32
self-splicing fitness (ln) (37 °C): -2.31 ± 0.27

CUCGAGCAAUAUUACGGCAC
self-splicing fitness (ln) (30 °C): -3.63 ± 0.25
self-splicing fitness (ln) (37 °C): -2.16 ± 0.36

CUCGAGCAAUAUUACGGCAG
self-splicing fitness (ln) (30 °C): -1.71 ± 0.13
self-splicing fitness (ln) (37 °C): -1.03 ± 0.15

CUCGAGCAAUAUUACGGCAU
self-splicing fitness (ln) (30 °C): -2.71 ± 0.19
self-splicing fitness (ln) (37 °C): -3.09 ± 0.37

CUCGAGCAAUAUUACGGCGG
self-splicing fitness (ln) (30 °C): -1.2 ± 0.12
self-splicing fitness (ln) (37 °C): -0.858 ± 0.2

CUCGAGCAAUAUUACGGGGC
self-splicing fitness (ln) (30 °C): -3.41 ± 0.18
self-splicing fitness (ln) (37 °C): -1.51 ± 0.16

CUCGAGCAAUAUUACGGUCU
self-splicing fitness (ln) (30 °C): -3.02 ± 0.15
self-splicing fitness (ln) (37 °C): -2.11 ± 0.17

CUCGAGCAAUAUUACGGUUG
self-splicing fitness (ln) (30 °C): -3.73 ± 0.13
self-splicing fitness (ln) (37 °C): -2.07 ± 0.13

CUCGAGCAAUAUUACGUACC
self-splicing fitness (ln) (30 °C): -2.32 ± 0.26
self-splicing fitness (ln) (37 °C): -0.911 ± 0.39

CUCGAGCAAUAUUACGUCCG
self-splicing fitness (ln) (30 °C): -3.41 ± 0.18
self-splicing fitness (ln) (37 °C): -3.68 ± 0.42

CUCGAGCAAUAUUACGUCUA
self-splicing fitness (ln) (30 °C): -1.79 ± 0.24
self-splicing fitness (ln) (37 °C): -2.43 ± 0.31

CUCGAGCAAUAUUACGUGUG
self-splicing fitness (ln) (30 °C): -2.74 ± 0.12
self-splicing fitness (ln) (37 °C): -1.27 ± 0.095

CUCGAGCAAUAUUACGUUAC
self-splicing fitness (ln) (37 °C): -2.22 ± 0.43

CUCUAGCAAUAUUACGAAGG
self-splicing fitness (ln) (30 °C): -2.01 ± 0.38
self-splicing fitness (ln) (37 °C): -1.16 ± 0.32

CUCUAGCAAUAUUACGAAUC
self-splicing fitness (ln) (37 °C): -3.69 ± 0.39

CUCUAGCAAUAUUACGACAC
self-splicing fitness (ln) (37 °C): -2.49 ± 0.25

CUCUAGCAAUAUUACGAUGG
self-splicing fitness (ln) (30 °C): -3.61 ± 0.19
self-splicing fitness (ln) (37 °C): -1.91 ± 0.14

CUCUAGCAAUAUUACGCACG
self-splicing fitness (ln) (30 °C): -2.45 ± 0.17
self-splicing fitness (ln) (37 °C): -1.95 ± 0.23

CUCUAGCAAUAUUACGCCGU
self-splicing fitness (ln) (30 °C): -2.12 ± 0.27
self-splicing fitness (ln) (37 °C): -3.98 ± 0.39

CUCUAGCAAUAUUACGCCUU
self-splicing fitness (ln) (30 °C): -1.58 ± 0.18

CUCUAGCAAUAUUACGCUCC
self-splicing fitness (ln) (37 °C): -1.03 ± 0.36

CUCUAGCAAUAUUACGCUUC
self-splicing fitness (ln) (30 °C): -2.62 ± 0.27
self-splicing fitness (ln) (37 °C): -2.39 ± 0.34

CUCUAGCAAUAUUACGGAGU
self-splicing fitness (ln) (30 °C): -3.04 ± 0.29
self-splicing fitness (ln) (37 °C): -2.61 ± 0.25

CUCUAGCAAUAUUACGGUGG
self-splicing fitness (ln) (30 °C): -2.88 ± 0.15
self-splicing fitness (ln) (37 °C): -2.48 ± 0.21

CUCUAGCAAUAUUACGUAGU
self-splicing fitness (ln) (30 °C): -4.1 ± 0.26
self-splicing fitness (ln) (37 °C): -4.45 ± 0.36

CUCUAGCAAUAUUACGUCUA
self-splicing fitness (ln) (30 °C): -2.31 ± 0.25
self-splicing fitness (ln) (37 °C): -2.88 ± 0.24

CUCUAGCAAUAUUACGUGAA
self-splicing fitness (ln) (30 °C): -3.77 ± 0.21
self-splicing fitness (ln) (37 °C): -3.07 ± 0.25

CUCUAGCAAUAUUACGUGAC
self-splicing fitness (ln) (30 °C): -4.2 ± 0.26
self-splicing fitness (ln) (37 °C): -1.68 ± 0.17

CUCUAGCAAUAUUACGUGCG
self-splicing fitness (ln) (30 °C): -2.61 ± 0.22
self-splicing fitness (ln) (37 °C): -3.7 ± 0.3

CUCUAGCAAUAUUACGUUAU
self-splicing fitness (ln) (30 °C): -3.92 ± 0.4
self-splicing fitness (ln) (37 °C): -2.16 ± 0.25

CUGAAGCAAUAUUACGAAGG
self-splicing fitness (ln) (30 °C): -0.457 ± 0.093
self-splicing fitness (ln) (37 °C): -1.38 ± 0.14

CUGAAGCAAUAUUACGACUA
self-splicing fitness (ln) (30 °C): -1.29 ± 0.16
self-splicing fitness (ln) (37 °C): -0.875 ± 0.21

CUGAAGCAAUAUUACGAUAC
self-splicing fitness (ln) (30 °C): -2.44 ± 0.32
self-splicing fitness (ln) (37 °C): -1.94 ± 0.36

CUGAAGCAAUAUUACGAUCU
self-splicing fitness (ln) (30 °C): -3.3 ± 0.16
self-splicing fitness (ln) (37 °C): -3.2 ± 0.28

CUGAAGCAAUAUUACGAUGC
self-splicing fitness (ln) (30 °C): -3.46 ± 0.21
self-splicing fitness (ln) (37 °C): -2.86 ± 0.33

CUGAAGCAAUAUUACGCAAC
self-splicing fitness (ln) (37 °C): -2.22 ± 0.35

CUGAAGCAAUAUUACGCAUG
self-splicing fitness (ln) (30 °C): -0.485 ± 0.063
self-splicing fitness (ln) (37 °C): 0.071 ± 0.1

CUGAAGCAAUAUUACGCCCA
self-splicing fitness (ln) (30 °C): -2.13 ± 0.34

CUGAAGCAAUAUUACGCCCG
self-splicing fitness (ln) (30 °C): -0.0662 ± 0.23
self-splicing fitness (ln) (37 °C): 0.309 ± 0.24

CUGAAGCAAUAUUACGCCCU
self-splicing fitness (ln) (30 °C): -3.03 ± 0.22
self-splicing fitness (ln) (37 °C): -2.86 ± 0.47

CUGAAGCAAUAUUACGCCGA
self-splicing fitness (ln) (30 °C): -1.44 ± 0.22

CUGAAGCAAUAUUACGCGAA
self-splicing fitness (ln) (30 °C): -3.12 ± 0.32
self-splicing fitness (ln) (37 °C): -0.319 ± 0.18

CUGAAGCAAUAUUACGCGCU
self-splicing fitness (ln) (30 °C): -3.35 ± 0.29

CUGAAGCAAUAUUACGCUUU
self-splicing fitness (ln) (30 °C): -3.4 ± 0.31
self-splicing fitness (ln) (37 °C): -3.78 ± 0.42

CUGAAGCAAUAUUACGGAAU
self-splicing fitness (ln) (30 °C): -3.01 ± 0.15
self-splicing fitness (ln) (37 °C): -1.96 ± 0.15

CUGAAGCAAUAUUACGGCUC
self-splicing fitness (ln) (30 °C): -2.75 ± 0.16
self-splicing fitness (ln) (37 °C): -2.52 ± 0.25

CUGAAGCAAUAUUACGUACA
self-splicing fitness (ln) (30 °C): -2.36 ± 0.21
self-splicing fitness (ln) (37 °C): -1.39 ± 0.25

CUGAAGCAAUAUUACGUGGA
self-splicing fitness (ln) (30 °C): -4.08 ± 0.3
self-splicing fitness (ln) (37 °C): -2.63 ± 0.27

CUGAAGCAAUAUUACGUGUA
self-splicing fitness (ln) (30 °C): -4.08 ± 0.24
self-splicing fitness (ln) (37 °C): -2.12 ± 0.2

CUGAAGCAAUAUUACGUUCC
self-splicing fitness (ln) (37 °C): -2.57 ± 0.3

CUGCAGCAAUAUUACGAACA
self-splicing fitness (ln) (30 °C): -3.3 ± 0.24
self-splicing fitness (ln) (37 °C): -1.49 ± 0.14

CUGCAGCAAUAUUACGAAGG
self-splicing fitness (ln) (30 °C): -2.05 ± 0.13
self-splicing fitness (ln) (37 °C): -1.06 ± 0.16

CUGCAGCAAUAUUACGAAUA
self-splicing fitness (ln) (30 °C): -1.74 ± 0.45
self-splicing fitness (ln) (37 °C): -1.3 ± 0.2

CUGCAGCAAUAUUACGACAU
self-splicing fitness (ln) (30 °C): -1.04 ± 0.012
self-splicing fitness (ln) (37 °C): -0.363 ± 0.032

CUGCAGCAAUAUUACGACCC
self-splicing fitness (ln) (30 °C): -3.76 ± 0.36
self-splicing fitness (ln) (37 °C): -1.05 ± 0.48

CUGCAGCAAUAUUACGAGAG
self-splicing fitness (ln) (30 °C): -1.64 ± 0.12
self-splicing fitness (ln) (37 °C): -2.96 ± 0.22

CUGCAGCAAUAUUACGAGCA
self-splicing fitness (ln) (30 °C): -3.11 ± 0.21
self-splicing fitness (ln) (37 °C): -2.38 ± 0.22

CUGCAGCAAUAUUACGAUGG
self-splicing fitness (ln) (30 °C): -1.7 ± 0.08
self-splicing fitness (ln) (37 °C): -1.18 ± 0.1

CUGCAGCAAUAUUACGCACG
self-splicing fitness (ln) (30 °C): -1.03 ± 0.047
self-splicing fitness (ln) (37 °C): -0.409 ± 0.069

CUGCAGCAAUAUUACGCAUU
self-splicing fitness (ln) (30 °C): -4.22 ± 0.2
self-splicing fitness (ln) (37 °C): -2.21 ± 0.23

CUGCAGCAAUAUUACGCGAA
self-splicing fitness (ln) (30 °C): -3.31 ± 0.33
self-splicing fitness (ln) (37 °C): -2.52 ± 0.27

CUGCAGCAAUAUUACGCGCG
self-splicing fitness (ln) (30 °C): -1.6 ± 0.075
self-splicing fitness (ln) (37 °C): -0.249 ± 0.087

CUGCAGCAAUAUUACGCGGU
self-splicing fitness (ln) (30 °C): -2.5 ± 0.15
self-splicing fitness (ln) (37 °C): -2.89 ± 0.23

CUGCAGCAAUAUUACGGCGC
self-splicing fitness (ln) (30 °C): -3.82 ± 0.3
self-splicing fitness (ln) (37 °C): -2.75 ± 0.4

CUGCAGCAAUAUUACGGGAU
self-splicing fitness (ln) (30 °C): -2.46 ± 0.096
self-splicing fitness (ln) (37 °C): -2.1 ± 0.15

CUGCAGCAAUAUUACGGUAG
self-splicing fitness (ln) (30 °C): -3.65 ± 0.1
self-splicing fitness (ln) (37 °C): -2.45 ± 0.11

CUGCAGCAAUAUUACGGUUA
self-splicing fitness (ln) (30 °C): -2.6 ± 0.16
self-splicing fitness (ln) (37 °C): -1.03 ± 0.12

CUGCAGCAAUAUUACGGUUG
self-splicing fitness (ln) (30 °C): -1.02 ± 0.13
self-splicing fitness (ln) (37 °C): -1.83 ± 0.19

CUGCAGCAAUAUUACGUCAC
self-splicing fitness (ln) (30 °C): -3.39 ± 0.31

CUGCAGCAAUAUUACGUGGA
self-splicing fitness (ln) (30 °C): -2.92 ± 0.16
self-splicing fitness (ln) (37 °C): -3.04 ± 0.2

CUGCAGCAAUAUUACGUGUC
self-splicing fitness (ln) (30 °C): -4.46 ± 0.28
self-splicing fitness (ln) (37 °C): -2.79 ± 0.29
